Experimental data as given in PMC2999833.

Experiments:
[1] = molecular target: Dok1 pY362 peptide (human); test: SPR
[2] = molecular target: Dok2 pY345 peptide (human); test: SPR

Kd [1]: 600 nM
Kd [2]: 3500 nM
Substance: Full-length recombinant His tagged human Nck1 (from UniProt P16333 1-377) (natural protein)
